{
  "source": "patent US20250228941",
  "about": "“CELLULAR THERAPY” (UNIVERSITÄt BASEL, published 2025)",
  "details_in_all_cases": "tags: His-tag, Abcam ab198455, labeled with RED-Tris-NTA",
  "key": {"[1]": {"molecular_target": "T1, PHGDH (D-3-phosphoglycerate dehydrogenase) (Homo sapiens, UniProt O43175 SEQ:1-533)", "T1 sequence": "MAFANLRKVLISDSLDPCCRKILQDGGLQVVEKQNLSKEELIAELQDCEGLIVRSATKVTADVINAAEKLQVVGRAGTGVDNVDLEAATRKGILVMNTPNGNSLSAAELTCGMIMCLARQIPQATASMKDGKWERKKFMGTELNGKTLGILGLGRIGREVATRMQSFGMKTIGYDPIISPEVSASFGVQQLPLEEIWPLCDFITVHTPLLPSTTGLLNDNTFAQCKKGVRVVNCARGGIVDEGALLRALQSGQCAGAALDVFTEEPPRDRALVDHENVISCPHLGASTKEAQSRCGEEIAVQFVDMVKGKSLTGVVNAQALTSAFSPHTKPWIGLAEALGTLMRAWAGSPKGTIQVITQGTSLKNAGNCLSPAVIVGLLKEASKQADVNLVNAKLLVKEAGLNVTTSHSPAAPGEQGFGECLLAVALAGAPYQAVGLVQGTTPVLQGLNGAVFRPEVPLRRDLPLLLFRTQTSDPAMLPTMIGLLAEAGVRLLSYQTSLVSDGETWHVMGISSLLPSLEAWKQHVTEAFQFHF", "experiment": "MST; low response amplitude; no AU-rich elements; RNA up to 850 nM, same buffer", "experimental": "(§1) Microscale thermophoresis experiments were performed using a NanoTemper® Monolith NT.115 (NanoTemper Tenchologies, Germany) with blue and red filters. His-tagged PHGDH protein was labeled using the Monolith His-Tag labeling Kit RED-Tris-NTA 2nd generation (SKU: MO-L018), according to manufacturer's protocol (Step B, Step C). Briefly, 90 μl of PHGDH protein (200 nM) was mixed with 90 μl of dye (100 nM) and incubated for 30 min at RT. Samples were centrifuged for 10 min at 4° C. at 15.000×g and transferred into a fresh tube. RNA was brought to a concentration of 1700 nM and a serial dilution of 1:2 over 16 steps in binding buffer (10 mM Tris HCl, 50 mM KCl, 0.5 mM EDTA, 0.1 mg/ml BSA, 10% (v/v) Rnase/Dnase free glycerol) was performed. Fluorescently labeled protein was added at a final concentration of 50 nM to each tube. 16 capillaries were loaded with IRF1 3′UTR RNA (highest concentration 850 nM) and PHGDH protein (50 nM). Samples were measured with the following settings: 20% LED/excitation and medium MST power. At the final dye concentration of 25 nM, the expected fluorescence intensity at 20% LED/excitation is around 300 counts on a Monolith NT.115."}, "[2]": {"molecular_target": "T1, PHGDH (D-3-phosphoglycerate …)", "experiment": "MST; high response amplitude; fitted to Kd model but no value given; 50 nM PHGDH, RNA 13-850 nM; 10 mM Tris HCl, 50 mM KCl, 0.5 mM EDTA, 0.1 mg/ml BSA, 10% glycerol", "experimental": "(§2) Data were fitted to the Kd model.\nas §1"}, "[3]": {"molecular_target": "T1, PHGDH (D-3-phosphoglycerate …)", "experiment": "MST; mutation impeded binding; RNA up to 850 nM, same buffer", "experimental": "as §2, §1"}},
  "data": [
    {"binder": "ACAUGUGCCAGCUAAGCACUUGAAAUGUGGCCAGUGCAAUA (ssRNA)", "note": "[IRF1 3'UTR fragment 4 (Fg4)]", "values": [
      {"measurement": "binding result", "setting": "[1]", "value": "no binding"}
    ]},
    {"binder": "AGGAAUUGAACUUUUAAUUGCAUUUAAUAAACUGUAUGUAAAUAGUCA (ssRNA)", "note": "[IRF1 3'UTR fragment 3 (Fg3)]", "values": [
      {"measurement": "binding result", "setting": "[2]", "value": "binds"}
    ]},
    {"binder": "AGGAAUUGAACCCUUAAUUGCAUUUAAUAAACUGUAUGUAAAUAGUCA (ssRNA)", "note": "[mutated fragment 3 (muFg3)]", "values": [
      {"measurement": "binding result", "setting": "[3]", "value": "no binding"}
    ]}
  ]
}
